Results on one molecule are retold here after article PMC4065035, “A Highly Functional Synthetic Phage Display Library Containing over 40 Billion Human Antibody Clones” (PLoS ONE, 2014).

In general, Kd refers to the constant that tells how readily two partners part at equilibrium. By koff is commonly meant the rate constant with which the complex falls apart. Broadly, the kon is a measure of how fast the partners come together.

For assay [1], the target named is T1, murine recombinant BCD domains of tenascin-C (Mus musculus, UniProt Q80YX1).
T1 construct: tenascin-C, mouse, alternatively spliced segment of the three fibronectin type-III homology domains B, C and D; A biotinylated version was used for the panning; the Biacore chip was a coated CM5 chip; also called murine BCD; murine BCD antigen; source: E. coli (pQE12 vector), purified over NiNTA resin
The assay can be described thus: SPR; Biacore 3000; CM5 chip coated with murine or human recombinant BCD domains of tenascin-C; antibody (monomeric fraction of scFv, or SIP) injected at different concentrations, 10 µL/min; regeneration with 10 mM HCl. Conditions: both partners purified.

Assay [2] concerns the target T2, human recombinant BCD domains of tenascin-C (Homo sapiens, UniProt P24821).
T2 construct: tenascin-C, human, alternatively spliced segment of the three fibronectin type-III homology domains B, C and D; AVI-Tag followed by the His-Tag at the C-terminus; Purification of the human construct is not clearly told; also called human BCD; human BCD domain; source: E. coli (pUC119 vector)
Described as above. Conditions: both partners purified.

B1: scFv(G5), human antibody G5 in monomeric scFv format (scFv, V domains shown)
VH: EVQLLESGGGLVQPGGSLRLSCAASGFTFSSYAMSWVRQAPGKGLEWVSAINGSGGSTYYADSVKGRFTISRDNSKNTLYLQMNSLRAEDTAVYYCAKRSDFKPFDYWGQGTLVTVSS
VL: SSELTQDPAVSVALGQTVRITCQGDSLRSYYASWYQQKPGQAPVLVIYGKNNRPSGIPDRFSGSSSGNTASLTITGAQAEDEADYYCNSSGFPRTLVVFGGGTKLTVL
notes: VH of G5; library VH is on the DP47 germline with S52N (numbering of Tomlinson et al.) and a randomised CDR3 (residues 95-100); flexible polypeptide linker that connects VH and VL in the library's scFv format; VL of G5; Library scFv are detected by the anti-myc antibody 9E10; also called G5 antibody clone; anti-BCD antibody G5; source: E. coli (pHEN1 phagemid, IPTG induction), purified over …
Regarding B1, in assay [1], the equilibrium dissociation constant (Kd) worked out at 31 nM, the koff is 0.0025 s⁻¹ and the kon was 79000 M⁻¹ s⁻¹. Besides, in assay [2], the Kd is 27 nM, the off-rate constant (koff) was 0.003 s⁻¹ and the kon was found to be 110000 M⁻¹ s⁻¹.
